Article PMC4694755 (Molecular Biology of the Cell, 2016)

Biological target: Mouse importin β (mouse, UniProt P70168 1-876)
Test: SPR

Chain of Mouse importin β (P70168 whole entry): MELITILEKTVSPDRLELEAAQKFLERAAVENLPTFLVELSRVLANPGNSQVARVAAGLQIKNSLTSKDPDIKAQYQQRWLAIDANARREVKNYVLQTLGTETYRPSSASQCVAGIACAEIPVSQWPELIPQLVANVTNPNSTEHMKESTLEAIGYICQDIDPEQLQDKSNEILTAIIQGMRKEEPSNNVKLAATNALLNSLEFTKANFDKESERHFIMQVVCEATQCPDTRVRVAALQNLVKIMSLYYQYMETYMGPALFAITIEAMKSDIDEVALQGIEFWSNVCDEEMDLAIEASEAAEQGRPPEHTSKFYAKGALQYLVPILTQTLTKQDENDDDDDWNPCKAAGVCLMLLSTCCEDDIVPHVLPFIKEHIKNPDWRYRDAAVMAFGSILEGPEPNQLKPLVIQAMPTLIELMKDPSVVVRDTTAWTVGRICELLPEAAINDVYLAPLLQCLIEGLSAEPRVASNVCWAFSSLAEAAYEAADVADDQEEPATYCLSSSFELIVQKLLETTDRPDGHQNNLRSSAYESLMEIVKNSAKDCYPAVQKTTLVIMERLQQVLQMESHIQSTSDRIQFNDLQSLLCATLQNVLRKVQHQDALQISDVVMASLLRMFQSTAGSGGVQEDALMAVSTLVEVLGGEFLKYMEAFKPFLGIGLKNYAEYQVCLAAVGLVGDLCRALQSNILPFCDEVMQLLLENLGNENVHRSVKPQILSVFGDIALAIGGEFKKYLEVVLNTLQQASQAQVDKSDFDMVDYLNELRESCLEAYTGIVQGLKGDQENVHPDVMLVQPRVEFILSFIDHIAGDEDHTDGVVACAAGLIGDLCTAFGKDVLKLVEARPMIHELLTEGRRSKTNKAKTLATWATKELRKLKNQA

koff: 0.00132 s⁻¹
kon: 99400 M⁻¹ s⁻¹
B1: importin β–binding domain of rat importin α (IBB, amino acids 1–66) (domain or fragment)
chain: not shown
